# Measurements as given in article doi:10.1101/2023.10.30.564668 (bioRxiv, 2023).
# B1: CR57 diabody (other)
# VH: EVQLVQSGAEVKKPGSSVKVSCKASGGTFNRYTVNWVRQAPGQGLEWMGGIIPIFGTANYAQRFQGRLTITADESTSTAYMELSSLRSDDTAVYFCARENLDNSGTYYYFSGWFDPWGQGTLVTVSS
# VL: QSALTQPRSVSGSPGQSVTISCTGTSSDIGGYNFVSWYQQHPGKAPKLMIYDATKRPSGVPDRFSGSKSGNTASLTISGLQAEDEADYYCCSYAGDYTPGVVFGGGTKLTVL
# Biological target: RABV-G domain III (Rabies virus, strain CVS-11 (GenBank …, stabilised))
# Test: crystal structure
binder,measurement,value
B1,stoichiometry N,2 domain III per diabody
